In US20230077205A1 one finds log α (log Kp PLBL2 - log Kp Ab6) data, which are given here for two substances.

In experiment [1] the target is Protein A, MabSelect Sure (protein A affinity resin ligand). In words: resin slurry partitioning on MabSelect Sure protein A resin; reference Ab6; Strip: 100 mM acetic acid.
The target is the same in experiment [2]. In words: resin slurry partitioning on MabSelect Sure protein A resin; reference Ab6; Equil/wash: 10 mM NaPhosphate, pH 6.5.
Experiment [3] shares this target. Description: resin slurry partitioning on MabSelect Sure protein A resin; reference Ab6; High salt wash: 10 mM NaPhosphate, pH 6.5, 0.5M NaCl.
The target is the same in experiment [4]. In words: resin slurry partitioning on MabSelect Sure protein A resin; reference Ab6; Elute: 20 mM NaAcetate, pH 3.5.

Take PLBL2 (enzyme): the results for the log α (log Kp PLBL2 - log Kp Ab6) in experiment [1], in experiment [2] and in experiment [3] were 0, -2 and -2, respectively.

For PLBL2, the log α (log Kp PLBL2 - log Kp Ab6) in experiment [4] is -0.3.
